Changes are numbered by the printed parent chain. No end group written: not given here.
Assays:
P-selectin Δ5CRP = P-selectin Δ5CRP (human, UniProt P16109); test: direct ELISA of COS cell supernatants
peptide CQNRYTDLVAIQNKNE = molecular target: T1, peptide CQNRYTDLVAIQNKNE; test: indirect: soluble peptide as competitor in ELISA of PB1.3 on affinity purified P-selectin
T1 peptide: CQNRYTDLVAIQNKNE-NH2
Protocol: III. […] Dilutions of mu MAb PB1.3 in DPBS+1% BSA were mixed with either 0.35 mg/ml CQNRYT-[…] (SEQ ID No: 1) in PBS, or as a control, PBS alone. After 1 hr, 50 μl of each antibody dilution was added to the microtiter plate, and incubated for 1 hr. The plate was washed with DPBS, and a 1 to 1000 dilution of sheep anti-mouse IgG horseradish peroxidase conjugate in DPBS+ 1% BSA was added. After 1 hr, the plate was washed, the substrate TMB was added, and the color development was stopped and the plates read as above.

[1] = molecular target: T2, recombinant soluble P-selectin (Homo sapiens (Human), UniProt P16109); test: competitive ELISA on rsP-selectin; unlabelled PB1.3 against biotinylated PB1.3
Protocol: (§1) A 96-well plate (MICROTEST III, FALCON #3912) was coated with 50 μl/well of rsP-selectin (diluted to 2 μg/ml in DPBS) overnight at 4° C. or 90 min at 37° C. The plate was inverted and residual fluid was tapped away.
(§2) The coated plate and an additional blank plate were blocked with 200 µl/well of DPBS+1% bovine serum albumin (BSA, SIGMA #A-7888), for 1 h at room temperature. The blank plate was inverted and the residual blocking fluid was tapped away. The rsP-selectin coated plate was allow to continue blocking during the antibody dilution period. Serially diluted sample antibodies (in DPBS+1% BSA) were added to the blank plate at 50 µl/well. The initial concentrations of the antibodies were 100 µg/ml. Biotinylated-PB1.3 (diluted to 0.3 µg/ml in DPBS+1% BSA) was added to the sample antibodies in the blank plate, 50 µl/well, and mixed by pipetting up and down. The rsP-selectin coated plate was washed three times with DPBS. The sample antibody/biotinylated -PB1.3 mixture was pipetted into the plate coated with rsP-selectin, 50 µl/well, and allowed to incubate for one h at room temperature. The plate was then washed three times with DPBS.
(§3) Streptavidin horse radish peroxidase conjugate (PIERCE #21124) diluted 1:2000 in DPBS+1% BSA was added to the plate, 50 µl/well and allowed to incubate for 1 h at room temperature. The plate was then washed three times with DPBS.

[2] = molecular target: T2, recombinant soluble P-selectin; test: ELISA on plates coated with rsP-selectin, COS cell supernatants
Protocol: Media from the transfected COS cells were assayed by ELISA to quantify levels of human antibody produced and analyze capacity to bind to recombinant soluble P-selectin (rsP-selectin). Immulon microtiter plates ([…], #011-010-3355) were coated with 100 μl/well of a solution of goat anti-human IgG (whole molecule, SIGMA #I-1886) to a final concentration of 12.5 μg/ml or a solution of rsP-selectin (1.2 mg/ml) diluted in Dulbecco's phosphate buffered saline (DPBS). Plates were coated overnight at 4° C. or for 2 h at 37° C. The plates were then washed three times with DPBS. The plates were then blocked with 400 μl/well of DPBS+1% bovine serum albumin (BSA, SIGMA, #A-7888) for one h or longer at room temperature. The plates were then washed three times with DPBS.
Serial dilutions of the monoclonal antibodies in DPBS+ 1% BSA were added to the plates (100 μl/well), and the plates were incubated for 1 h at room temperature. The plates were then washed three times with DPBS. 100 μl/well of a second antibody (goat anti-human IgG peroxidase conjugate, SIGMA #A-8867) diluted 1 to 1000 in DPBS+ 1% BSA was added to the plates, and the plates were incubated for one h at room temperature. The plates were then washed three times with DPBS. […] The plates were read at 450 nm in a […] […]

[3] = molecular target: T2, recombinant soluble P-selectin; test: competitive ELISA on rsP-selectin; reference unlabelled PB1.3
Protocol: as §1, §2, §3

[4] = molecular target: T2, recombinant soluble P-selectin; test: competitive ELISA on rsP-selectin; competitor biotinylated PB1.3
Protocol: as §1, §2, §3

B1: mu MAb PB1.3 (antibody, V domains shown)
VH: EAQLQQSGPELVEPGASVKVSCKASGYTFTNYVMHWVKQKPGQGLEWIGFINPSNDGPKYNERFKNKATLTSDKSSSTAYMELSSLTSEVSAVYFCARARPGFDWYFDVWGAGTTVTVSS
VL: DIVMTQSQKFMSTSVGDRVSVTCKASQNVATNVVWYQQRPGQSPKALIYTASYRFSGVPERFSGSGSGTDFTLTITNVQSEDLADYFCQQYNNYPYTFGGGTKVEIQ
P-selectin Δ5CRP
  binding result: no binding
Peptide CQNRYTDLVAIQNKNE
  binding result: no binding (tested: 0.35 mg/ml)
[1]
  IC50: 1 µg/mL

B2: reshaped MAb PB1.3, heavy chain CY1748RHA with light chain CY1748RLB (antibody, V domains shown)
VH: EAQLVQSGAEVKKPGASVKVSCKASGYTFTNYVMHWVRQAPGQRLEWMGFINPSNDGPKYNERFKNRVTITSDTSASTAYMELSSLRSEDTAVYYCARARPGFDWYFDVWGQGTLVTVSS
VL: DIQMTQSPSTLSASVGDRVTVTCKASQNVATNVVWYQQKPGEAPKALIYTASYRFSGVPSRFSGSGSGTDFTLTISSLQSDDFATYYCQQYNNYPYTFGQGTKLEIK
[2]
  binding result: binds

B3: reshaped MAb PB1.3 (HB/LD), IgG4 isotype (antibody, V domains shown)
VH: B2 VH with E1Q, A2V
VL: B2 VL with D70E
[3]
  binding relative to PB1.3: 50%

B4: reshaped MAb PB1.3 (HA/LA), IgG1 isotype (antibody, V domains shown)
VH: B2 VH
VL: B2 VL with S60E
[3]
  binding relative to PB1.3: 50%
[4]
  IC50: 2 µg/mL

B5: reshaped MAb PB1.3, heavy chain CY1748RHA with light chain CY1748RLC (antibody, V domains shown)
VH: B2 VH
VL: B2 VL with S60E, D70E
[2]
  binding result: binds
